Positions count from the first letter of the chain named. One block for each binder: values may come before it.
What was measured:
[1] = target: T1, hFc-mROR1 (extracellular domain of mouse ROR1 fused to the Fc domain of human IgG1) (human; mouse, UniProt Q9Z139 30-406); assay: ELISA; hFc fusion captured by coated anti-human IgG1 Fc; Fab 100 ng/50 µL; anti-His-HRP; A405
T1 construct: extracellular domain; not shown: Fc domain of human IgG1
Experimental: (§1) The binding of each chimeric rabbit/human Fab to hROR1 and mROR1 fused with human IgG1 Fc (hFc-hROR1 and hFc-mROR1) was analyzed by ELISA. hFc-ROR1 or hFc-mROR1 were captured by anti-human IgG1 Fc antibody immobilized on plate and then incubated with hROR1 specific Fabs comprising a His-tag via detection with mouse anti-His tag.
ELISA: For ELISA (FIG. 2), each well of a 96-well Costar 3690 plate (Corning, Corning, N.Y.) was coated with 100 ng anti-human IgG1 Fc in 25 μL coating buffer (0.1 M Na₂CO₃, 0.1 M NaHCO₃, pH 9.6) for 1 h at 37° C. After blocking with 150 μL 3% (w/v) BSA/TBS for 1 h at 37° C., hFc-hROR1 or hFc-mROR1 was captured following incubation at 100 ng/50 μL for 1 h at 37° C. Then 100 ng/50 μL of Fab was applied in each well at 37° C. 2 h later, 50 μL of a 1:1000 dilution of a mouse anti-His tag mAb conjugated to horse radish peroxidase (HRP) (R&D Systems, Minneapolis, Minn.) in 1% (w/v) BSA/TBS was used to detect the Fab. To determine the epitopes (FIG. 4), hFc fusion proteins containing different domains of hROR1 were coated directly, followed by incubation with Fab before detection by mouse anti-His tag mAb conjugated to HRP. […] The absorbance was measured at 405 nm using a SpectraMax M5 microplate reader (Molecular Devices; Sunnyvale, Calif.) and SoftMax Pro software (Molecular Devices).

[2] = target: T2, hFc-hROR2 (extracellular domain of human ROR2 fused to the Fc domain of human IgG1) (human, UniProt Q01974 34-403); assay: ELISA as for hFc-hROR1; third bar series, keyed 'hFc-hROR1' a second time on the sheet, taken as hFc-hROR2 by legend paragraph 27
T2 construct: extracellular domain; not shown: Fc domain of human IgG1
T2 sequence (Q01974 34-403): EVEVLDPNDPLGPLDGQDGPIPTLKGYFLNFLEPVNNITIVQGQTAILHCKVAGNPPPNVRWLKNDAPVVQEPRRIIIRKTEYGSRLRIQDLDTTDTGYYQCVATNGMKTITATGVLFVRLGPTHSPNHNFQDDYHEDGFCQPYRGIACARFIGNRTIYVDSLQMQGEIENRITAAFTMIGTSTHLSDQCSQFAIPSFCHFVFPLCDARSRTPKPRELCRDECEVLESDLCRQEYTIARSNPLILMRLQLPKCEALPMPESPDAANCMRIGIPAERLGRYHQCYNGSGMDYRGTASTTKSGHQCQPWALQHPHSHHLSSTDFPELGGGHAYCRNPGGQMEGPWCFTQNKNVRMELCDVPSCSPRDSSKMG
Experimental: as §1
(§2) ELISA: For ELISA (FIG. 2), each well of a 96-well Costar 3690 plate (Corning, Corning, N.Y.) was coated with 100 ng anti-human IgG1 Fc in 25 μL coating buffer (0.1 M Na₂CO₃, 0.1 M NaHCO₃, pH 9.6) for 1 h at 37° C. After blocking with 150 μL 3% (w/v) BSA/TBS for 1 h at 37° C., hFc-hROR1 or hFc-mROR1 was captured following incubation at 100 ng/50 μL for 1 h at 37° C. Then 100 ng/50 μL of Fab was applied in each well at 37° C. 2 h later, 50 μL of a 1:1000 dilution of a mouse anti-His tag mAb conjugated to horse radish peroxidase (HRP) (R&D Systems, Minneapolis, Minn.) in 1% (w/v) BSA/TBS was used to detect the Fab. To determine the epitopes (FIG. 4), hFc fusion proteins containing different domains of hROR1 were coated directly, followed by incubation with Fab before detection by mouse anti-His tag mAb conjugated to HRP. Washing with PBS was repeated and colorimetric detection was performed using 2,2′-azino-bis(3-ethylbenzthiazoline)-6-sulfonic acid (Roche) as substrate according to the manufacturer's directions. The absorbance was measured at 405 nm using a SpectraMax M5 microplate reader (Molecular Devices; Sunnyvale, Calif.) and SoftMax Pro software (Molecular Devices).

[3] = target: T3, hROR2 (human, UniProt Q01974); assay: flow cytometry on 63-12 / hROR2 cells; anti-His Alexa Fluor 488
T3 construct: full length, on the cell surface; also called 63-12 / hROR2; ROR2 on T47D cells
T3 sequence (Q01974 34-943 limits assumed): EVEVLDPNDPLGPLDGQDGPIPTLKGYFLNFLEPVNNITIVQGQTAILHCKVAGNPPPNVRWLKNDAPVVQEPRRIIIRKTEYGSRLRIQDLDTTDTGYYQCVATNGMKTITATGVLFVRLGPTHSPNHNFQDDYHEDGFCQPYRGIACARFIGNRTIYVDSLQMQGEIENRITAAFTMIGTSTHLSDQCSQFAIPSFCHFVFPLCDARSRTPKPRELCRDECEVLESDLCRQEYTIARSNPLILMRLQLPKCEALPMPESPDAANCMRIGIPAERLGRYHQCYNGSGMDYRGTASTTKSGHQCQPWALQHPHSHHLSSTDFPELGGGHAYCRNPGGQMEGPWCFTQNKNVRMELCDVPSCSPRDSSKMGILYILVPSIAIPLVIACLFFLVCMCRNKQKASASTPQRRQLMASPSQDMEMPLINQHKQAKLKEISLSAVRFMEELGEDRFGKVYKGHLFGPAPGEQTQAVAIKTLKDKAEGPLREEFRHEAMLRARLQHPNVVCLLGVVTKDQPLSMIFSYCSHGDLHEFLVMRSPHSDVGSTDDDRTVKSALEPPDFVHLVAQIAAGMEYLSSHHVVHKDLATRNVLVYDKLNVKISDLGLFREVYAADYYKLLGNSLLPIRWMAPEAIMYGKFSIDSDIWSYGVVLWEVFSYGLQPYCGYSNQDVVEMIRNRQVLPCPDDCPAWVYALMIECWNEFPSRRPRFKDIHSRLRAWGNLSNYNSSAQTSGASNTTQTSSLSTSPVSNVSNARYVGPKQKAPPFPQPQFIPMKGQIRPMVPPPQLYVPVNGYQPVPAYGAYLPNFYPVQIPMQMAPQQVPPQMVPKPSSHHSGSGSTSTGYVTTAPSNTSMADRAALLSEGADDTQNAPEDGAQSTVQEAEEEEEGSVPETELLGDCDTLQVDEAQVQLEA
Experimental: (§3) Flow cytometry: Cells were stained using standard flow cytometry methodology. Briefly, for purified anti-ROR1 Fab (FIG. 3), 0.1-1×10⁶ cells were stained with 1000 ng/100 μL of Fab on ice for 1 h. After washing twice with ice-cold flow cytometry buffer (PBS containing 1% (v/v) BSA, 0.1% sodium azide and 1 mM EDTA), the cells were incubated with a 1:1000 dilution of a mouse anti-His tag mAb conjugated to Alexa Fluor 488 (Qiagen) in 100 μL flow cytometry buffer on ice for 30 min. For purified anti-ROR1 IgG1 (FIG. 8), 0.1-1×10⁶ cells were blocked by 4% goat serum for 15 min at room temperature and then incubated with 100 ng/100 μL of IgG on ice for 1 h. After washing twice with ice-cold flow cytometry buffer, cells were stained with a 1:500 dilution of goat anti-human IgG, Fcγ pAbs conjugated to APC (Jackson ImmunoResearch) in 100 μL flow cytometry buffer on ice for 30 min. For commercial goat anti human ROR1 polyclonal antibody (FIG. 8), 0.1-1×10⁶ cells were stained with 200 ng/100 μL of Ab on ice for 1 h. […] Finally, 4′,6-diamidino-2-phenylindole (DAPI) was added to a final concentration of 100 ng/mL to exclude dead cells from the analysis. Cells were analyzed using a FACSCalibur instrument (BD Biosciences) and FlowJo analytical software (Tree Star, Ashland, Oreg.).

[4] = target: T4, Ig (human, UniProt Q01973); assay: ELISA on directly coated hFc fusion proteins of hROR1 domains; anti-His-HRP; A405
T4 construct: Ig domain of the extracellular domain; also called hFc-hROR1-Ig
T4 sequence (Q01973 42-147 limits assumed): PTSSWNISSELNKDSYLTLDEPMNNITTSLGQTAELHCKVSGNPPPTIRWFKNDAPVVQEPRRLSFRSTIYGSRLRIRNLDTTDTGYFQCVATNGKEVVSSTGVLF
Experimental: as §2

[5] = target: T5, Fr; assay: as above
T5 construct: also called hFc-hROR1-Fr
T5 sequence (chain, as listed by the source limits assumed): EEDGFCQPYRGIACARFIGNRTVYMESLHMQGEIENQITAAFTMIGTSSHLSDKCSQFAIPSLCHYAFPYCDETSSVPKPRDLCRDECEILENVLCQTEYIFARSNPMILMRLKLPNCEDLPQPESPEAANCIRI
Experimental: as §2

[6] = target: T6, Kr (human, UniProt Q01973); assay: as above
T6 construct: Kringle domain of the extracellular domain; also called hFc-hROR1-Kr
T6 sequence (Q01973 312-391 limits assumed): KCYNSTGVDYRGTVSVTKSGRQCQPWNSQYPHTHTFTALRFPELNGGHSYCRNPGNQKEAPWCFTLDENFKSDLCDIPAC
Experimental: as §2

[7] = target: T7, Fr + Ki (human, UniProt Q01973); assay: as above
T7 construct: Frizzled and Kringle domains of the extracellular domain; also called hFc-hROR1-Fr-Ki
T7 sequence (Q01973 165-391 limits assumed): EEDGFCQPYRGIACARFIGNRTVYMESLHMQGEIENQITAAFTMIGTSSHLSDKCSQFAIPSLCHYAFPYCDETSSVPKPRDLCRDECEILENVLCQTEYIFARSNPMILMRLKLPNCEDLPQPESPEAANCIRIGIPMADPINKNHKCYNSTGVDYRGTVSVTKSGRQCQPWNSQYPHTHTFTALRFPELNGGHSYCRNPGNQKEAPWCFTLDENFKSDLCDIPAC
Experimental: as §2

[8] = target: T8, hFc-hROR1 (extracellular domain of human ROR1 fused to the Fc domain of human IgG1) (human, UniProt Q01973 30-406); assay: SPR (Biacore X100); hFc-hROR1 captured by anti-human Fcγ antibody on CM5; Fab as analyte; 1:1 Langmuir fit
T8 construct: extracellular domain; also called hFc-ROR1; not shown: Fc domain of human IgG1
T8 sequence (Q01973 30-406): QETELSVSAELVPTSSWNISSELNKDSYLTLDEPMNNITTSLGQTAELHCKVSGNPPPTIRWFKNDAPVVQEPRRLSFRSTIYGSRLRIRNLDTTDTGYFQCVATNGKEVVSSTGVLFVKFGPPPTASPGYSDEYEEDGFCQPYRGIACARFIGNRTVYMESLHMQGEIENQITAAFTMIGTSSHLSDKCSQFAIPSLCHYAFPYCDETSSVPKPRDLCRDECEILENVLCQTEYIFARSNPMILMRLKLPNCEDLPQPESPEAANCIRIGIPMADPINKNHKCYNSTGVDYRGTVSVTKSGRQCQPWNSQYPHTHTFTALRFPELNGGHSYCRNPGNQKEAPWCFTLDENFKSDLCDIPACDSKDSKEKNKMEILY
Experimental: (A) Shown are Biacore X100 sensorgrams obtained for the binding of each Fab to hFc-hROR1 captured by anti-human Fcγ antibody immobilized on CM5 chip after instantaneous background depletion. Fabs were injected at five different concentrations with the highest concentration indicated in table (B), one of the five concentrations was tested in duplicates. The equilibrium dissociation constant (Kd) was calculated from koff/kₒₙ (kₒₙ, association rate constant; koff, dissociation rate constant).
Surface plasmon resonance: Surface plasmon resonance for the measurement of the affinities of all Fabs to hFc-hROR1 and for epitope mapping studies were performed on a Biacore X100 instrument using Biacore reagents and software (GE Healthcare, Piscataway, N.J.). Anti-Human IgG (Fc) antibody was immobilized on a CM5 sensor chip following the instruction of Human Antibody Capture Kit (GE Healthcare, Piscataway, N.J.). The sensor chip included an empty flow cell for instantaneous background depletion. All binding assays used 1×HBS-EP+ running buffer (10 mM HEPES, 150 mM NaCl, 3 mM EDTA (pH 7.4), and 0.05% (v/v) Surfactant P20) and a flow rate of […]. […] The sensor chip was regenerated with […] from the Human Antibody Capture Kit without any loss of binding capacity. Calculation of association (kₒₙ) and dissociation (koff) rate constants was based on a 1:1 Langmuir binding model. The equilibrium dissociation constant (Kd) was calculated from koff/kₒₙ. For epitope mapping studies, each Fab was prepared at 500 nM alone in 1×HBS-EP+ running buffer and then injected in order as indicated in FIG. 5.

[9] = target: T3, hROR2; assay: flow cytometry on T47D cells (ROR2 positive, ROR1 negative); APC goat anti-human Fcγ
Experimental: as §3

[10] = target: T9, hROR2-ECD-HIS (human, UniProt Q01974); assay: Western blot of denatured, reduced samples; anti-human Fcγ-HRP
T9 construct: extracellular domain; also called hROR2-His; purified extracellular domain of hROR2
T9 sequence (Q01974 34-403): as the sequence (Q01974 34-403) above
Source text: The Western blots contained the following samples as indicated: Lane 1: K562 cells ectopically expressing full length of hROR1. Lane 2: untransfected K62 cells. Lane 3: purified extracellular domain of hROR1. Lane 4: purified extracellular domain of hROR2.
Western blotting: Cells or proteins were lysed by 1× sample buffer (containing 1% β-mercaptoethanol) and boiled before running on NuPAGE Novex 4-12% Bis-Tris gels (Invitrogen).

[11] = target: T10, StrepII-tagged human ROR1 extracellular domain (human, UniProt Q01973 30-406); assay: SPR (Biacore T200); mAb captured by goat anti-human Fcγ IgG on CM5; ROR1-strep as analyte (Example 8); first of two independent measurements; batch of the parental IgG not stated
T10 construct: extracellular domain; also called ROR1-strep; strep-tagged human ROR1
T10 sequence (Q01973 other isoform, or with tags, fused parts or gaps): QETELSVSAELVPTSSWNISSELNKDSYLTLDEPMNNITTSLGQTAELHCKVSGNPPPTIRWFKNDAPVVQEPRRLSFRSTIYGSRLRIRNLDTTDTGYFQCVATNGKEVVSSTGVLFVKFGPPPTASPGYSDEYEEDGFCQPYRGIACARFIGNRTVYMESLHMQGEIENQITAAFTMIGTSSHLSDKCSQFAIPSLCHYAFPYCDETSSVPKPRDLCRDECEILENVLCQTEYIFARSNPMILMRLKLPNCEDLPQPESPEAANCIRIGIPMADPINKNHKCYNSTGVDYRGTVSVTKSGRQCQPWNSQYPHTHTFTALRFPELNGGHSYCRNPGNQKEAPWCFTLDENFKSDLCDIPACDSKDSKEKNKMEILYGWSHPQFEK
Experimental: (§4) Affinity screening was then performed to select the best binders. Affinities were determined using a Biacore T200 instrument (GE Healthcare, Buckinghamshire, UK) and data was evaluated using Biacore Evaluation T200 V2.0 software. To capture mAbs, goat α-human Fc-gamma-specific IgG (Jackson ImmunoResearch, #109-005-098) was covalently immobilized on a CM5 chip (GE Healthcare, #BR-1005-30).

[12] = target: T11, human CD20 on HEK293 cells (cell microarray) (human, UniProt P11836 1-297); assay: cell microarray (Retrogenix): fixed HEK293 cells over-expressing the protein; AlexaFluor647 anti-human IgG Fc detection
T11 construct: whole, on cells; Expressed on fixed HEK293 cells of the Retrogenix microarray
T11 sequence (looked up): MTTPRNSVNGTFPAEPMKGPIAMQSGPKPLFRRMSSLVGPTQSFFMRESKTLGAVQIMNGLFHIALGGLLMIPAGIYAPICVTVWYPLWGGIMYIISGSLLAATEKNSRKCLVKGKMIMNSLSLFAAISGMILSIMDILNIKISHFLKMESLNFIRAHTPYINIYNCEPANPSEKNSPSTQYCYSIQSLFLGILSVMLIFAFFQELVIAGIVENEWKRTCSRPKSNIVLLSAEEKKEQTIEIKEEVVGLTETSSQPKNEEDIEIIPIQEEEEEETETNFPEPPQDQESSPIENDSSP
Experimental: (§5) ZsGreen1 signals on the left indicate the expression levels of the various human membrane proteins.
(§6) FIG. 28 provides an overview of the Retrogenix Cell Microarray Platform. […] An AlexaFluor647 anti-human IgG Fc detection antibody was used. Primary hits (duplicate spots) were identified by analyzing fluorescence (AlexaFluor647 and ZsGreen1) on ImageQuant. Vectors encoding all hits were sequenced to confirm their correct identities. […] Slides were analyzed as before (FIG. 29).

[13] = target: T12, human ROR2 on HEK293 cells (cell microarray) (human, UniProt Q01974 34-943); assay: as above
T12 construct: whole, on cells; Expressed on fixed HEK293 cells of the Retrogenix microarray
T12 sequence (Q01974 34-943): as the sequence (Q01974 34-943 limits assumed) above
Experimental: as §5, §6

[14] = target: T10, StrepII-tagged human ROR1 extracellular …; assay: SPR (Biacore T200); mAb captured by goat anti-human Fcγ IgG on CM5; ROR1-strep as analyte (Example 8); second of two independent measurements; batch of the parental IgG not stated
Experimental: as §4
Briefly, for capturing mAbs in HEK293T supernatants, the undiluted supernatants were captured with a flow of 30 μl/min for 120 s.

T1 sequence (Q9Z139 30-406): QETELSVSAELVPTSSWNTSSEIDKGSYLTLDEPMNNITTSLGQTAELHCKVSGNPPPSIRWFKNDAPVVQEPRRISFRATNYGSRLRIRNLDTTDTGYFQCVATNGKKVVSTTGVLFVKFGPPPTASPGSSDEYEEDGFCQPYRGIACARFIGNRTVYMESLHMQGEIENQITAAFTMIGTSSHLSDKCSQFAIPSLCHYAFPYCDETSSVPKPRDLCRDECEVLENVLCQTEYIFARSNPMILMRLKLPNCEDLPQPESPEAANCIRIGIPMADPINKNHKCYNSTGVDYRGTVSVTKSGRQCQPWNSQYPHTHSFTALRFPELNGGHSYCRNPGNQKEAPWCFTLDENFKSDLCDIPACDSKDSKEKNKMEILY

binding result [1]: binds
binding result [2]: no binding (tested: 100 ng/50 µL)
binding result [3]: no binding (tested: 1000 ng/100 µL)
binding result [4]: no binding
binding result [5]: no binding
binding result [6]: no binding
binding result [7]: no binding
Kd [8]: 110 nM
koff [8]: 0.0813 s⁻¹
kon [8]: 737000 M⁻¹ s⁻¹
B1: ERR1-TOP22 chimeric rabbit/human Fab (Fab, V domains shown)
VH: QSLEESGGRLVTPGTPLTLTCTVSGFSLSSYYMSWVRQAPGKGLEWIGTISSSGSTYYASWVKGRFTISKTSTTVDLKMTSLTTEDTATYFCARDLDYDMDLWGPGTLVTVSS
VL: SYELTQLPSVSVSLGQTARITCGGNSIGSKAVHWYQQKPGLAPGLLIYNDDERPSGVPDRFSGSNSGDTATLTISGAQAGDEADYYCQLWDNNAAVFGGGTQLTVTG
notes: Chimeric rabbit/human Fab with His tag, expressed in E. coli (pET11a); lambda light chain

binding result [9]: no binding (tested: 100 ng/100 µL)
binding result [10]: no binding (tested: 2 µg/mL)
Kd [11]: 5.1 nM
koff [11]: 0.00591 s⁻¹
kon [11]: 1.16e+06 M⁻¹ s⁻¹
binding result [12]: no binding (tested: 20 µg/mL)
binding result [13]: no binding (tested: 20 µg/mL)
Kd [14]: 5.1 nM
koff [14]: 0.00556 s⁻¹
kon [14]: 1.1e+06 M⁻¹ s⁻¹
B2: XBR1-402 chimeric rabbit/human IgG1 (antibody, V domains shown)
VH: QEQQKESGGGLFKPTDTLTLTCTASGFDISSYYMSWVRQAPGNGLEWIGAIGISGNAYYASWAKSRSTITRNTNLNTVTLKMTSLTAADTATYFCARDHPTYGMDLWGPGTLVTVSS
VL: B1 VL with G23E, S26N, N49D, L89V, N92S, N93S, A95Y
notes: Rabbit variable domains on human IgG1 constant regions (vector PIGG), lambda light chain, from HEK 293F cells, Protein A purified
